Results: patent publication US20240150490A1 (MABPRO A S, published 2024)

Tests used:
recombinant human CA IX = recombinant human CA IX (human, UniProt Q16790 38-414); assay: SPR (Biacore 2000), antibody captured on CM5 chip, rh CA IX in flow, 25 C
Experimental: In order to determinate the antigen-binding affinity of humanized variants, measurements of affinity constant (KD) for antibodies binding to CA IX were performed by SPR using a Biacore 2000 (T200 in case of CA9hu-2) instrument (GE Healthcare, Piscataway, NJ USA). Each humanized antibody variant was captured on the CM5 sensor chip and recombinant human CA IX (rh CA IX; 42 kDa; R&D Systems, Inc., Minneapolis MN, USA) protein as an antigen was added to the buffer flowing over the chip. The setting details of quantitative interaction analysis between humanized antibodies and rh CA IX were as follows: flow rate 30 μl/min; analysis temperature 25° C.; analysis buffer (10mM HEPES pH 7.4, 150 mM NaCl, […], 0.05% Tween 20). Results from SPR analysis are expressed as the equilibrium dissociation constant (KD) (Table 7).

[1] = molecular target: CA IX expressed by cells (C-33a_CA IX transfectants; hypoxic BT-20, JIMT-1, 8-MG-BA and 42-MG-BA cells) (human, UniProt Q16790 38-459); assay: cell-based or functional assay

B1: CA9hu-1_HC4LC4 (antibody, V domains shown)
VH: EVQLVESGGGLVQPGGSLRLSCAASGFTFTDYYMHWVRQAPGRGLEWVAFIRNKASGYTPQYSASVKGRFTISRDNAENSLYLQMNSLRAEDTAVYYCVRGGHAGSNYWYFDVWGKGTTVTVSS
VL: DIQMTQSPSSLSASVGDRVTINCHVSQNINVWLSWYQQKPGEAPKLLIYQASNLHTGVPSRFSGSGSGTGFTLTIRSLQPEDYATYYCQQGQSYPFTFGQGTKLEIK
notes: Humanized from murine VII/20; also called HC4LC4 (CA9hu-1)
**Q.** Which Kd (recombinant human CA IX) does the source give for B1 here?
**A.** Its Kd is 15.2 nM.

**Q.** What about the “ADCC reporter activity, induction over no Ab, BT-20 cells” value [1] of the same binder?
**A.** The value was > 25 fold.
